# Paper PMC11260466, “Binding of the TRF2 iDDR motif to RAD50 highlights a convergent evolutionary strategy to inactivate MRN at telomeres”
# Target: HsRAD50-head (Homo sapiens, UniProt Q92878;Q92878 1-200;1113-1312)
# Test: EMSA; Mg-ATP; EMSA: 20 mM Bis-Tris propane pH 8.0, 200 mM NaCl, 0.5 mM TCEP, Mg-ATP added to RAD50, 500 nM DNA duplex; 5% polyacrylamide, 0.5x TBE, 4 C gel run (binding temperature not stated)
# Conditions: protein: recombinant; tags: C-terminal 3C site + 2xStrep-II on the 1-200 fragment; chain copies: 2;2; label: 5'-carboxyfluorescein (F) on strand 1; blunt ends; as printed S2 is 47 nt and lacks the G opposite C21 of S1 (1-nt bulge, possibly a misprint)
# Chain of HsRAD50-head (Q92878 1-200, chain 1 of 2): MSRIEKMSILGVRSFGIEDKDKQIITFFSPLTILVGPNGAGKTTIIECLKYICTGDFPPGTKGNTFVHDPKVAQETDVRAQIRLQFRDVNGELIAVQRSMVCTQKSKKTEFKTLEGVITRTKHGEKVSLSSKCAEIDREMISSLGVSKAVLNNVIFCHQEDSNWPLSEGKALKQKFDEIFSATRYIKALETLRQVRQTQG
# Chain of HsRAD50-head (Q92878 1113-1312, chain 2 of 2): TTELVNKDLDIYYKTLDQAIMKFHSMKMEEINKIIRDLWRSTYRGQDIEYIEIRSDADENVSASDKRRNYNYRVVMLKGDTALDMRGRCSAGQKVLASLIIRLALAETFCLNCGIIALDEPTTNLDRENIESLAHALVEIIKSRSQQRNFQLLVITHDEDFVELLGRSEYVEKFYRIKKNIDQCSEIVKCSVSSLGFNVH
binder,measurement,value
48-mer DNA duplex (dsDNA) DNA 1: TAGTGCTGTAGGAGAATATACGGGCTGCTCGTGTTGACAAGTACTGAT DNA 2: ATCAGTACTTGTCAACACGAGCAGCCCTATATTCTCCTACAGCACTA,binding result,binds
